{"source": "the supplement of paper PMC11246515", "test": "total protein half-life in vivo (active degradation + dilution); higher = more stable protein", "key": {"[1]": {"conditions": "E. coli NCM3722 delta-clpP delta-lon delta-hslV, growth: N-lim chemostat, doubling time 6 h"}, "[2]": {"conditions": "E. coli NCM3722 delta-hslV, growth: N-lim chemostat, doubling time 6 h"}, "[3]": {"conditions": "E. coli NCM3722 delta-lon, growth: N-lim chemostat, doubling time 6 h"}, "[4]": {"conditions": "E. coli NCM3722 delta-smpB, growth: N-lim chemostat, doubling time 6 h"}, "[5]": {"conditions": "wild type E. coli NCM3722, growth: C-lim chemostat, doubling time 3 h"}, "[6]": {"conditions": "wild type E. coli NCM3722, growth: C-lim chemostat, doubling time 6 h"}, "[7]": {"conditions": "wild type E. coli NCM3722, growth: C-lim chemostat, doubling time 12 h"}, "[8]": {"conditions": "wild type E. coli NCM3722, growth: N-lim chemostat, doubling time 6 h"}, "[9]": {"conditions": "wild type E. coli NCM3722, growth: N-lim chemostat, doubling time 12 h"}, "[10]": {"conditions": "wild type E. coli NCM3722, growth: P-lim chemostat, doubling time 6 h"}, "[11]": {"conditions": "wild type E. coli NCM3722, growth: P-lim chemostat, doubling time 12 h"}, "[12]": {"conditions": "E. coli NCM3722 delta-clpP, growth: N-lim chemostat, doubling time 6 h"}}, "note": "± gives the standard deviation of the averaged measurements.", "data": [{"sequence": "MSNKPFIYQAPFPMGKDNTEYYLLTSDYVSVADFDGETILKVEPEALTLLAQQAFHDASFMLRPAHQKQVAAILHDPEASENDKYVALQFLRNSEIAAKGVLPTCQDTGTAIIVGKKGQRVWTGGGDEETLSKGVYNTYIEDNLRYSQNAALDMYKEVNTGTNLPAQIDLYAVDGDEYKFLCVAKGGGSANKTYLYQETKALLTPGKLKNFLVEKMRTLGTAACPPYHIAFVIGGTSAETNLKTVKLASAHYYDELPTEGNEHGQAFRDVQLEQELLEEAQKLGLGAQFGGKYFAHDIRVIRLPRHGASCPVGMGVSCSADRNIKAKINREGIWIEKLEHNPGQYIPQELRQAGEGEAVKVDLNRPMKEILAQLSQYPVSTRLSLTGTIIVGRDIAHAKLKELIDAGKELPQYIKDHPIYYAGPAKTPAGYPSGSLGPTTAGRMDSYVDLLQSHGGSMIMLAKGNRSQQVTDACHKHGGFYLGSIGGPAAVLAQQSIKHLECVAYPELGMEAIWKIEVEDFPAFILVDDKGNDFFQQIVNKQCANCTK", "values": [{"measurement": "total protein half-life in vivo", "setting": "[1]", "result": "5.77 ± 0.79", "unit": "h"}, {"measurement": "total protein half-life in vivo", "setting": "[2]", "result": "4.08 ± 0.13", "unit": "h"}, {"measurement": "total protein half-life in vivo", "setting": "[3]", "result": "4.19 ± 0.42", "unit": "h"}, {"measurement": "total protein half-life in vivo", "setting": "[4]", "result": "3.86 ± 0.25", "unit": "h"}, {"measurement": "total protein half-life in vivo", "setting": "[5]", "result": "3.08 ± 0.042", "unit": "h"}, {"measurement": "total protein half-life in vivo", "setting": "[6]", "result": "5.65 ± 0.69", "unit": "h"}, {"measurement": "total protein half-life in vivo", "setting": "[7]", "result": "9.34 ± 1.8", "unit": "h"}, {"measurement": "total protein half-life in vivo", "setting": "[8]", "result": "4.28 ± 0.48", "unit": "h"}, {"measurement": "total protein half-life in vivo", "setting": "[9]", "result": "5.98 ± 0.31", "unit": "h"}, {"measurement": "total protein half-life in vivo", "setting": "[10]", "result": 5.73, "unit": "h"}, {"measurement": "total protein half-life in vivo", "setting": "[11]", "result": "11.2 ± 0.73", "unit": "h"}]}, {"sequence": "MSNLLGPRDANGIPVPMTVDESIASMKASLLKKIKRSAYVYRVDCGGCNGCEIEIFATLSPLFDAERFGIKVVPSPRHADILLFTGAVTRAMRSPALRAWQSAPDPKICISYGACGNSGGIFHDLYCVWGGTDKIVPVDVYIPGCPPTPAATLYGFAMALGLLEQKIHARGPGELDEQPAEILHGDMVQPLRVKVDREARRLAGYRYGRQIADDYLTQLGQGEEQVARWLEAENDPRLNEIVSHLNHVVEEARIR", "values": [{"measurement": "total protein half-life in vivo", "setting": "[1]", "result": 5.31, "unit": "h"}]}, {"sequence": "MSNLSLDFSDNTFQPLAARMRPENLAQYIGQQHLLAAGKPLPRAIEAGHLHSMILWGPPGTGKTTLAEVIARYANADVERISAVTSGVKEIREAIERARQNRNAGRRTILFVDEVHRFNKSQQDAFLPHIEDGTITFIGATTENPSFELNSALLSRARVYLLKSLSTEDIEQVLTQAMEDKTRGYGGQDIVLPDETRRAIAELVNGDARRALNTLEMMADMAEVDDSGKRVLKPELLTEIAGERSARFDNKGDRFYDLISALHKSVRGSAPDAALYWYARIITAGGDPLYVARRCLAIASEDVGNADPRAMQVAIAAWDCFTRVGPAEGERAIAQAIVYLACAPKSNAVYTAFKAALADARERPDYDVPVHLRNAPTKLMKEMGYGQEYRYAHDEANAYAAGEVYFPPEIAQTRYYFPTNRGLEGKIGEKLAWLAEQDQNSPIKRYR [P0AAZ4]", "values": [{"measurement": "total protein half-life in vivo", "setting": "[1]", "result": "5.65 ± 0.3", "unit": "h"}, {"measurement": "total protein half-life in vivo", "setting": "[12]", "result": "4.56 ± 0.49", "unit": "h"}, {"measurement": "total protein half-life in vivo", "setting": "[2]", "result": "4.91 ± 1.5", "unit": "h"}, {"measurement": "total protein half-life in vivo", "setting": "[3]", "result": "4.562 ± 0.028", "unit": "h"}, {"measurement": "total protein half-life in vivo", "setting": "[4]", "result": "3.65 ± 0.14", "unit": "h"}, {"measurement": "total protein half-life in vivo", "setting": "[5]", "result": "3.02 ± 0.14", "unit": "h"}, {"measurement": "total protein half-life in vivo", "setting": "[6]", "result": "5.39 ± 0.29", "unit": "h"}, {"measurement": "total protein half-life in vivo", "setting": "[7]", "result": "9.37 ± 0.81", "unit": "h"}, {"measurement": "total protein half-life in vivo", "setting": "[8]", "result": "3.82 ± 0.099", "unit": "h"}, {"measurement": "total protein half-life in vivo", "setting": "[9]", "result": "5.11 ± 0.23", "unit": "h"}, {"measurement": "total protein half-life in vivo", "setting": "[10]", "result": "5.07 ± 0.082", "unit": "h"}, {"measurement": "total protein half-life in vivo", "setting": "[11]", "result": "9.954 ± 0.019", "unit": "h"}]}, {"sequence": "MSNVQEWQQLANKELSRREKTVDSLVHQTAEGIAIKPLYTEADLDNLEVTGTLPGLPPYVRGPRATMYTAQPWTIRQYAGFSTAKESNAFYRRNLAAGQKGLSVAFDLATHRGYDSDNPRVAGDVGKAGVAIDTVEDMKVLFDQIPLDKMSVSMTMNGAVLPVLAFYIVAAEEQGVTPDKLTGTIQNDILKEYLCRNTYIYPPKPSMRIIADIIAWCSGNMPRFNTISISGYHMGEAGANCVQQVAFTLADGIEYIKAAISAGLKIDDFAPRLSFFFGIGMDLFMNVAMLRAARYLWSEAVSGFGAQDPKSLALRTHCQTSGWSLTEQDPYNNVIRTTIEALAATLGGTQSLHTNAFDEALGLPTDFSARIARNTQIIIQEESELCRTVDPLAGSYYIESLTDQIVKQARAIIQQIDEAGGMAKAIEAGLPKRMIEEASAREQSLIDQGKRVIVGVNKYKLDHEDETDVLEIDNVMVRNEQIASLERIRATRDDAAVTAALNALTHAAQHNENLLAAAVNAARVRATLGEISDALEVAFDRYLVPSQCVTGVIAQSYHQSEKSASEFDAIVAQTEQFLADNGRRPRILIAKMGQDGHDRGAKVIASAYSDLGFDVDLSPMFSTPEEIARLAVENDVHVVGASSLAAGHKTLIPELVEALKKWGREDICVVAGGVIPPQDYAFLQERGVAAIYGPGTPMLDSVRDVLNLISQHHD", "values": [{"measurement": "total protein half-life in vivo", "setting": "[5]", "result": 3.42, "unit": "h"}]}, {"sequence": "MSPIEKSSKLENVCYDIRGPVLKEAKRLEEEGNKVLKLNIGNPAPFGFDAPDEILVDVIRNLPTAQGYCDSKGLYSARKAIMQHYQARGMRDVTVEDIYIGNGVSELIVQAMQALLNSGDEMLVPAPDYPLWTAAVSLSSGKAVHYLCDESSDWFPDLDDIRAKITPRTRGIVIINPNNPTGAVYSKELLMEIVEIARQHNLIIFADEIYDKILYDDAEHHSIAPLAPDLLTITFNGLSKTYRVAGFRQGWMVLNGPKKHAKGYIEGLEMLASMRLCANVPAQHAIQTALGGYQSISEFITPGGRLYEQRNRAWELINDIPGVSCVKPRGALYMFPKIDAKRFNIHDDQKMVLDFLLQEKVLLVQGTAFNWPWPDHFRIVTLPRVDDIELSLSKFARFLSGYHQL [P0A959]", "values": [{"measurement": "total protein half-life in vivo", "setting": "[1]", "result": "4.25 ± 0.35", "unit": "h"}, {"measurement": "total protein half-life in vivo", "setting": "[12]", "result": "3.41 ± 0.16", "unit": "h"}, {"measurement": "total protein half-life in vivo", "setting": "[2]", "result": "3.89 ± 0.23", "unit": "h"}, {"measurement": "total protein half-life in vivo", "setting": "[3]", "result": "4.86 ± 1.1", "unit": "h"}, {"measurement": "total protein half-life in vivo", "setting": "[4]", "result": "3.88 ± 0.19", "unit": "h"}, {"measurement": "total protein half-life in vivo", "setting": "[5]", "result": "3.14 ± 0.28", "unit": "h"}, {"measurement": "total protein half-life in vivo", "setting": "[6]", "result": "5.63 ± 0.23", "unit": "h"}, {"measurement": "total protein half-life in vivo", "setting": "[7]", "result": "9.16 ± 0.84", "unit": "h"}, {"measurement": "total protein half-life in vivo", "setting": "[8]", "result": "3.76 ± 0.29", "unit": "h"}, {"measurement": "total protein half-life in vivo", "setting": "[9]", "result": "7.13 ± 0.82", "unit": "h"}, {"measurement": "total protein half-life in vivo", "setting": "[10]", "result": "6.06 ± 0.87", "unit": "h"}, {"measurement": "total protein half-life in vivo", "setting": "[11]", "result": "11.78 ± 0.1", "unit": "h"}]}, {"sequence": "MSPTIYDIARVAGVSKSTVSRVLNKQTNISPEAREKVLRAIEELQYQPNKLARALTSSGFDAIMVISTRSTKTTAGNPFFSEVLHAITAKAEEEGFDVILQTSHNPAEDLQKCESKIKQKMIKGIIMLSSPADESFFAQLDKYDIPVVVIGKVEGQYAHVYSVDTDNFGDSIALTDALIESGHQNIACLHAPLDVHVSVDRVNGYKQSLAAHNIAVRDEWIVDGGYTHETALKAARQLLSQSPLPEAVFATDSLKLMSIYRAAAEKNIAIPQQLAVVGYSNETLSFILTPAPGGIDVPTQELGQQSCELLFRLISGKPSPQNITVATHMTLK", "values": [{"measurement": "total protein half-life in vivo", "setting": "[1]", "result": "5.84 ± 0.79", "unit": "h"}, {"measurement": "total protein half-life in vivo", "setting": "[12]", "result": "4.18 ± 1.6", "unit": "h"}, {"measurement": "total protein half-life in vivo", "setting": "[2]", "result": "5.76 ± 0.6", "unit": "h"}, {"measurement": "total protein half-life in vivo", "setting": "[4]", "result": "4.86 ± 0.18", "unit": "h"}, {"measurement": "total protein half-life in vivo", "setting": "[5]", "result": "2.48 ± 0.17", "unit": "h"}, {"measurement": "total protein half-life in vivo", "setting": "[6]", "result": "5.41 ± 0.97", "unit": "h"}, {"measurement": "total protein half-life in vivo", "setting": "[7]", "result": "10.2 ± 2.9", "unit": "h"}, {"measurement": "total protein half-life in vivo", "setting": "[8]", "result": "5.34 ± 0.57", "unit": "h"}, {"measurement": "total protein half-life in vivo", "setting": "[9]", "result": "9.3 ± 0.42", "unit": "h"}, {"measurement": "total protein half-life in vivo", "setting": "[10]", "result": "5.06 ± 0.33", "unit": "h"}, {"measurement": "total protein half-life in vivo", "setting": "[11]", "result": "10.6 ± 2.2", "unit": "h"}]}]}
